These results are taken from paper PMC7858582.

For assay [1], the target named is soluble recombinant mouse BAFF (mouse) (UniProt Q9WU72).
Assay [2] shares this target. This is another data set of the same source.

Chain of UniProt Q9WU72 (Q9WU72 127-309): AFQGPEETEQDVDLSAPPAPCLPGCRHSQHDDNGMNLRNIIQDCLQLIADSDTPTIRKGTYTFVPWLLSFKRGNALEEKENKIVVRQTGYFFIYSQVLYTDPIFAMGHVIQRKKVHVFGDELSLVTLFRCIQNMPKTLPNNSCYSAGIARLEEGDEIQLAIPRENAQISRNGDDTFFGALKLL

B1: NgR1-Fc (Fc fusion)
chain: CPGACVCYNEPKVTTSCPQQGLQAVPTGIPASSQRIFLHGNRISHVPAASFQSCRNLTILWLHSNALARIDAAAFTGLTLLEQLDLSDNAQLHVVDPTTFHGLGHLHTLHLDRCGLRELGPGLFRGLAALQYLYLQDNNLQALPDNTFRDLGNLTHLFLHGNRIPSVPEHAFRGLHSLDRLLLHQNHVARVHPHAFRDLGRLMTLYLFANNLSMLPAEVLMPLRSLQYLRLNDNPWVCDCRARPLWAWLQKFRGSSSEVPCNLPQRLADRDLKRLAASDLEGCAVASGPFRPIQTSQLTDEELLSLPKCCQPDAADKASVLEPGRPASAGNALKGRVPPGDTPPGNGSGPRHINDSPFGTLPSSAEPPLTALRPGGSEPPGLPTTGPRRRPGCSRKNRTRSHCRLGQAGSGASGTGDAEGS
With B1, in assay [1], the percent of NgR1+ or NgR3+ B-cells isolated from spinal cord of EAE ngr1+/+ mice in S phase (BrdU/7AAD flow cytometry) after 50 ng/mL rBAFF pre-incubated with excess NgR-Fc was determined as 20.6% and the percent of isolated spinal cord B-cells staying in the G0/G1 phase after rBAFF pre-incubated with excess NgR-Fc came out at 55.8%. In addition, in assay [2], the percent of B-cells isolated from spleen entering the S phase after rBAFF pre-incubated with excess NgR-Fc was determined as 8% and the percent of B-cells isolated from spleen halted in the G0/G1 phase after rBAFF pre-incubated with excess NgR-Fc is 85.5%.

B2: recombinant BAFF-R (receptor)
chain: MGARRLRVRSQRSRDSSVPTQCNQTECFDPLVRNCVSCELFHTPDTGHTSSLEPGTALQPQEGSALRPDVALLVGAPALLGLILALTLVGLVSLVSWRWRQQLRTASPDTSEGVQQESLENVFVPSSETPHASAPTWPPLKEDADSALPRHSVPVPATELGSTELVTTKTAGPEQ
For the molecule B2, the percent of NgR1+ or NgR3+ B-cells isolated from spinal cord of EAE ngr1+/+ mice in S phase (BrdU/7AAD flow cytometry) after 50 ng/mL rBAFF pre-incubated with excess rBAFF-R in assay [1] stood at 27.7%.
